From article PMC7022617, “Structural and Functional Aspects of G-Quadruplex Aptamers Which Bind a Broad Range of Influenza A Viruses”

Biological target: hemagglutinin HA1 subunit H5 (recombinant, Abcam ab190125) (Influenza A virus A/Vietnam/1203/2004 …, UniProt Q6DQ33 17-346)
Assay: SPR; 10 mM K+
Conditions: protein: commercial

## TTGGGGTTATTTTGGGAGGGCGGGGGTT (structured_DNA) [RHA0385]
  Kd: 13 ± 3 nM

## TTGGGGTTAGGGAGGGCGGGGGTT (structured_DNA) [G7-TTA]
  Kd: 20 ± 6 nM

## TTGGGGTAAGAAGGGAGGGCGGGGGTT (structured_DNA) [G7-TAAGAA]
  Kd: 60 ± 10 nM

## TTGGGGTTATTAAGGGAGGGCGGGGGTT (structured_DNA) [G7-TTATTAA]
Parallel intramolecular G4
  Kd: 30 ± 10 nM
